Measured values taken from article PMC3984256 (2014).

Assays:
[1] = target: T1, Recombinant PCNA (proliferating cell nuclear antigen) (human, UniProt P12004 1-261); assay: SPR; 0 nM caPep
[2] = target: T1, Recombinant PCNA (proliferating cell …); assay: SPR; 500 nM caPep
[3] = target: T1, Recombinant PCNA (proliferating cell …); assay: SPR; 1000 nM caPep

T1 sequence (P12004 whole entry): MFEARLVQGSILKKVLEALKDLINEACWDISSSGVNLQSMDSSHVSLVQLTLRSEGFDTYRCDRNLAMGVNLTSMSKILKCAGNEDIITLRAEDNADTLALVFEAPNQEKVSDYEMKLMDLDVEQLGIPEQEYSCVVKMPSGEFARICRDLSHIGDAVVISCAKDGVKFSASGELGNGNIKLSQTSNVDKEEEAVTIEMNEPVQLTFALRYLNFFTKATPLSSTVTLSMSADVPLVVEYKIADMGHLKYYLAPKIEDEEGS

**Q.** Which results are given for SKSRQGSTQGRLDDFF [FEN1 peptide containing the PIP-box]?
**A.** Kd [1]: 0.0846 µM; Kd [2]: 3.33 µM; Kd [3]: 250 µM
